In the supplement of paper PMC12764529:
± gives the half width of the 95% confidence interval.

test: folding stability dG unfold (combined trypsin and chymotrypsin); higher = more stable
How it was run: (§1)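 Unfolding free energy was derived, per protease or combined, by relating Bayesian-fitted K50 values from sequencing counts to a sequence-predicted unfolded-state K50 and a shared folded-state K50. The underlying digests exposed cysteine-free mini-proteins under 80 residues, in a PA-tagged cDNA display construct, to trypsin and chymotrypsin at 11 threefold-diluted concentrations and to a no-protease condition. A filter kept only designs with AlphaFold2 dimer inter-PAE above 15.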

Row | Sequence | folding stability dG unfold [kcal/mol]
1 | SAGGKVYYIEIPPELLEAFPDLVVEPVEQPEDFVVAPVFLSDKVLLVPIRVFSEDGKELFDFTLTSNPSAGG [r13_129_TrMRF] | 1.62 ± 0.037
2 | SAWKIWIEFTPGDPGDTYQIRIDPNSPNLEALLKELAQMFKYEVKDAEVEYNPNGSVWVEFKVDELKPPSAG [r14_655_TrROS] | 2.37 ± 0.095
3 | SAGGSSFTGTVTPVKVDPVNPDLVTVATTLTWPDGTTVPLTRTIPRSVYDSLPENISISVTLSPPSSAGGSA [r2_128_JUSTAS] | 0.942 ± 0.1
4 | SAGGSAGGMTTVTYDPSTGVTTVLTPKTDPTSDETSVVTTTVTLPTSPSGGGGTATTTTTTTASSAGGSAGG [r6_952_JUSTAS] | 1.18 ± 0.045
5 | SAGGSAGGSKEKKTVILRIKIYVKNENGELIEEIEIPLKDLTLEELKELAKKLNVKVEIELLPSAGGSAGGS [r12_398_TrROS_Hall] | 3.05 ± 0.2
6 | SAGGSAGGSSPPVTVIPLKIPVDPDTTPEEIKEELAAKVPPNSSVKVDTKPGSGTVNVTVTISSAGGSAGGS [r12_12_JUSTAS] | 0.753 ± 0.14
7 | SAGGSAGGSAGGKKTLVIEFDLEPGGLTAEEIEELLRPYTGKEVRLETHPDGKPVAVVEGSAGGSAGGSAGG [r7_330_TrMRF] | -0.393 ± 0.16
8 | SAGGSAGMPSVTPVTVQMKGSREEAEAVAEELIEELRAKDPSVKVEAVEFSELPDGTYRVTITVTNSAGGSA [r15_718_JUSTAS] | 3.49 ± 0.054
9 | SAKYKIIEAKPGKNVVTITVEYTLPNGEKLTKPIPINAINPVIVEVSEDSITIYDPNNGKLITFPAEKLSAG [r14_947_TrMRF] | 2.49 ± 0.12
10 | SAGGSAGGSAGGSMKYITITETTEEEVLVLYYDPETGEPVREEKVLRTVTKTRTLPPDLKSAGGSAGGSAGG [r7_573_JUSTAS] | 0.189 ± 0.14
11 | SAGGSAGGSAGGMLTAVFTTPGNVRRLVPFSSEEEARALAEAEGVEVEFLDPAEAARLLSAGGSAGGSAGGS [r10_66_JUSTAS] | -0.476 ± 0.14
12 | SAGGSMVIPTKVSSLEEAKQVAEEILKKLGRPLTLDDVSFDPEKFKAELKPDTPVVVKVKDPSGVTLGASAG [r5_503_JUSTAS] | 0.409 ± 0.16
13 | SAGGSAGGSMSTVSTVTHPDGTPLTVTTTPLPDGTVLATYSAPDGTVVATFDVSTGTTVVVPLSAGGSAGGS [r20_159_JUSTAS] | 1.44 ± 0.074
14 | SAGGMTKTILIYDEETGVLVRIEIKVNPETGEIEEIKIETETLEDGTVKMKITLKDGTEIEVEIKPLPSAGG [r13_515_TrROS_Hall] | 3.25 ± 0.62
15 | SAGGSAGGSAGGKKTITVTVKINGKTYRVEIKYDEKTKKVTIKIEVNGKKYEFEFELKDSAGGSAGGSAGGS [r10_438_TrROS_Hall] | 4.54 ± 0.36
16 | SAGGSAGGGFVTIEVEITEVVGKTKDEEGKPHPGDPNDPSGYVKLPPFPVKVPSSPEEYAALLSSAGGSAGG [r6_219_JUSTAS] | 0.301 ± 0.16
17 | SAGGSAGGSAGSTALVETREFEDGTVVERVEVTLPNGEVLERTVVLTRDEAGNVVEEEVESAGGSAGGSAGG [r11_709_JUSTAS] | 0.958 ± 0.053
18 | SAGGSAGGSAGGSWLVRIPGHPIIFKGPEDQAEGIARELQKNGKPIEIEIIDPDEMKKFSAGGSAGGSAGGS [r4_131_TrROS] | 0.643 ± 0.23
19 | SAGGSAGGSAGGSSTAVIRRPETGEEHTFDLPEDATEEDIRARLEAAGFPPGSEIVEIVESAGGSAGGSAGG [r7_70_JUSTAS] | 1.66 ± 0.035
20 | ADPDVKVEVEFEVLPDGRLRVTAVDPDTGVVVEVEAPVDGAGPVTVRVRVRVFDPETGEVSTFEAEFTLPLS [r1_45_TrMRF] | 4.14 ± 0.17
21 | SAGGSAGGSAGMKKTVTTSTAPDGTLTTTTTVPTPDSTTTVVTTTTDPTTGTTTTTTTANSAGGSAGGSAGG [r11_107_JUSTAS] | -0.711 ± 0.34

test: folding stability dG unfold from chymotrypsin proteolysis; higher = more stable
How it was run: as §1

Row | Sequence | folding stability dG unfold [kcal/mol]
22 | SAGGMELTIPLPNGKLLKIKVEEVKAEPVLVEFELRDANGKLIDTIPAPSGFKISIRFSVEIYDPNEYSAGG [r13_848_TrMRF] | 3.908 ± 0.032
23 | SSYTVDVTFTDPSPPKPTHRTLSSIEDAIAEAKAELPPGSVATITVTYPDGSTETITIVGDGVVETKKTASA [r9_482_JUSTAS] | 0.917 ± 0.039
24 | SAGMVATLYDPNLPPVSVGITETVTVPHPEGFTVTVTLSSDGTATVTPSDGSSTTLPDASEVRVTATPASAG [r5_869_JUSTAS] | 0.921 ± 0.021
25 | SAGGSAGGSAGELTVTVTVLLEDGTAVKIEARFELDENGNLHLEVKVEVVKLPELSPEDLSAGGSAGGSAGG [r11_728_TrROS_Hall] | 2.25 ± 0.2
26 | SAGGSAGGMPPVSLPETPVTITDPATGKPRLVTVLAAAPDGTLTVRFPDGSEVTVAGEPLLELESAGGSAGG [r6_435_JUSTAS] | 1.05 ± 0.019
27 | SAGGDATIVLTDFPEDDPEARIRTARNLYRELKAAGPPLRINILTDTPLGREVADYLESEGIEVGLGSAGGS [r16_450_TrMRF] | -0.206 ± 0.26
28 | SAGGSAGGSAGGSMLVRFPDKDVLSDGSEAEAERLAEELAAAGRPVELEFISPEEAAARSAGGSAGGSAGGS [r4_131_JUSTAS] | -0.83 ± 0.32
29 | SMKYVKILLTLKGKPHVITIPSSLSLEEIIDKAIEFAKELGYKDIPKEELKILKVEENPDEEGSSSIIIGSA [r9_1053_TrMRF] | 3.74 ± 0.042
30 | SAELLEELLKKAREEAEKEGKKVEIHLVLVVEKDENGKVTFTEEEKELIKKLKEAFPDVEIKIEVVELPSAG [r14_636_TrROS_Hall] | 3.45 ± 0.16
31 | SAGGSAGGSAGGKAKIVDVKIEKEGNTVTIEVKIEVDGKLIATAKVRFTGPDGKLEIEIESAGGSAGGSAGG [r7_133_TrROS_Hall] | 2.9 ± 0.27
32 | SAGGKKKTIVLEVKVENLEEILKLAKEAAKAGDKVTVKVKLPDGEVYTVTVDVKTGKIVKVEKKKLPKSAGG [r13_873_TrROS_Hall] | 3.3 ± 0.18
33 | SAGGSAGGSAMKIVKITTTQLPNGTTKVTVTFSDGSTKTVTIPPNQPGKSAEEVAKKVLLESAGGSAGGSAG [r3_368_JUSTAS] | 3.37 ± 0.054
34 | SAGGSAGGMKYTTTTETSVVEVRTDPKTGTTTRLERVTVTTVDSSGNVLSTTETLEERVDPVPASAGGSAGG [r6_181_JUSTAS] | 2.163 ± 0.0081
35 | SAGMTLKEEEFELPDGSRRIRLTFTSEEELAAKLKELGFEKFNPLSPSESVDVTIPPDGVLSESLPKEGSAG [r5_941_JUSTAS] | 1.86 ± 0.066
36 | SAKLAEEIAKKILPEVKEVKILKIEVKKDPKSKFKVIKIEMLVKMPKGEKKIKIEIKPGKPKIKIIPLDSAG [r14_397_TrMRF] | 2.85 ± 0.1
37 | SAGGMKPGEKTIRLLLKLPPGEELTPEQVEELAKRLAEELREKGYEVEVEVVERDGELYVLVEVRFPESAGG [r13_442_TrROS_Hall] | 4.275 ± 0.034
38 | SAGGSAGGSAGPSYIAVVEFENGERPVYLFPPNTGKLEDIVEELKKKFPSLKKITIYPAPSAGGSAGGSAGG [r11_311_TrMRF] | 3.01 ± 0.16
39 | SAGSMKTVVRVEKEVDPSTGKITITEEIEDKVYTTTMDLNPETGDATSTVTYPDSTIGTTTVPISSISSSAG [r5_415_JUSTAS] | 0.706 ± 0.052
40 | SAGMKIEIEAEYDPESGTVTLHIKEEPEPGEPVEVKFPIKFLKDKVEIEAETEEPLDPEEILKKIKEELSAG [r5_478_TrMRF] | 0.835 ± 0.12
41 | SAGGPPIRIKVELWDPNGKEYTHTFPFGEPLDQILDNASKQFGLPLRVEDIEYDPDGMITITIRIPDSAGGS [r8_285_TrROS] | 1.77 ± 0.027
42 | SAGMPKPVVTPVTLPVNGALITFTVDPEVPLATFTFDEPDVNAVAEEYAKERAAELEKAGIPTKIVPSSAGG [r19_354_JUSTAS] | 0.743 ± 0.11

Row | Sequence | folding stability dG unfold [kcal/mol]
43 | SAGGKVYYIEIPPELLEAFPDLVVEPVEQPEDFVVAPVFLSDKVLLVPIRVFSEDGKELFDFTLTSNPSAGG [r13_129_TrMRF] | 1.77 ± 0.024
44 | SAWKIWIEFTPGDPGDTYQIRIDPNSPNLEALLKELAQMFKYEVKDAEVEYNPNGSVWVEFKVDELKPPSAG [r14_655_TrROS] | 2.67 ± 0.056
45 | SAGGSSFTGTVTPVKVDPVNPDLVTVATTLTWPDGTTVPLTRTIPRSVYDSLPENISISVTLSPPSSAGGSA [r2_128_JUSTAS] | 1.33 ± 0.1
46 | SAGGSAGGMTTVTYDPSTGVTTVLTPKTDPTSDETSVVTTTVTLPTSPSGGGGTATTTTTTTASSAGGSAGG [r6_952_JUSTAS] | 1.39 ± 0.024
47 | SAGGSAGGSKEKKTVILRIKIYVKNENGELIEEIEIPLKDLTLEELKELAKKLNVKVEIELLPSAGGSAGGS [r12_398_TrROS_Hall] | 3.5 ± 0.14
48 | SAGGSAGGSSPPVTVIPLKIPVDPDTTPEEIKEELAAKVPPNSSVKVDTKPGSGTVNVTVTISSAGGSAGGS [r12_12_JUSTAS] | -0.14 ± 0.11
49 | SAGGSAGGSAGGKKTLVIEFDLEPGGLTAEEIEELLRPYTGKEVRLETHPDGKPVAVVEGSAGGSAGGSAGG [r7_330_TrMRF] | -0.616 ± 0.44
50 | SAGGSAGMPSVTPVTVQMKGSREEAEAVAEELIEELRAKDPSVKVEAVEFSELPDGTYRVTITVTNSAGGSA [r15_718_JUSTAS] | 3.36 ± 0.057
51 | SAKYKIIEAKPGKNVVTITVEYTLPNGEKLTKPIPINAINPVIVEVSEDSITIYDPNNGKLITFPAEKLSAG [r14_947_TrMRF] | 2.87 ± 0.037
52 | SAGGSAGGSAGGSMKYITITETTEEEVLVLYYDPETGEPVREEKVLRTVTKTRTLPPDLKSAGGSAGGSAGG [r7_573_JUSTAS] | 0.434 ± 0.19
53 | SAGGSAGGSAGGMLTAVFTTPGNVRRLVPFSSEEEARALAEAEGVEVEFLDPAEAARLLSAGGSAGGSAGGS [r10_66_JUSTAS] | -0.497 ± 0.25
54 | SAGGSMVIPTKVSSLEEAKQVAEEILKKLGRPLTLDDVSFDPEKFKAELKPDTPVVVKVKDPSGVTLGASAG [r5_503_JUSTAS] | 0.458 ± 0.15
55 | SAGGSAGGSMSTVSTVTHPDGTPLTVTTTPLPDGTVLATYSAPDGTVVATFDVSTGTTVVVPLSAGGSAGGS [r20_159_JUSTAS] | 1.5 ± 0.079
56 | SAGGMTKTILIYDEETGVLVRIEIKVNPETGEIEEIKIETETLEDGTVKMKITLKDGTEIEVEIKPLPSAGG [r13_515_TrROS_Hall] | 3.08 ± 0.28
57 | SAGGSAGGSAGGKKTITVTVKINGKTYRVEIKYDEKTKKVTIKIEVNGKKYEFEFELKDSAGGSAGGSAGGS [r10_438_TrROS_Hall] | 4.42 ± 0.25
58 | SAGGSAGGGFVTIEVEITEVVGKTKDEEGKPHPGDPNDPSGYVKLPPFPVKVPSSPEEYAALLSSAGGSAGG [r6_219_JUSTAS] | -0.31 ± 0.62
59 | SAGGSAGGSAGSTALVETREFEDGTVVERVEVTLPNGEVLERTVVLTRDEAGNVVEEEVESAGGSAGGSAGG [r11_709_JUSTAS] | 1.29 ± 0.021
60 | SAGGSAGGSAGGSWLVRIPGHPIIFKGPEDQAEGIARELQKNGKPIEIEIIDPDEMKKFSAGGSAGGSAGGS [r4_131_TrROS] | 1.12 ± 0.14
61 | SAGGSAGGSAGGSSTAVIRRPETGEEHTFDLPEDATEEDIRARLEAAGFPPGSEIVEIVESAGGSAGGSAGG [r7_70_JUSTAS] | 1.91 ± 0.048
62 | ADPDVKVEVEFEVLPDGRLRVTAVDPDTGVVVEVEAPVDGAGPVTVRVRVRVFDPETGEVSTFEAEFTLPLS [r1_45_TrMRF] | 4.33 ± 0.15
63 | SAGGSAGGSAGMKKTVTTSTAPDGTLTTTTTVPTPDSTTTVVTTTTDPTTGTTTTTTTANSAGGSAGGSAGG [r11_107_JUSTAS] | -0.317 ± 0.095
